This note sets out measurements from patent US20100272723A1 (Xencor, published 2010).

Assay [1] concerns the target T1, human CD19 (human, UniProt P15391 20-556).
T1 construct: also called B-cell surface antigen B4; B-cell antigen CD19
T1 sequence: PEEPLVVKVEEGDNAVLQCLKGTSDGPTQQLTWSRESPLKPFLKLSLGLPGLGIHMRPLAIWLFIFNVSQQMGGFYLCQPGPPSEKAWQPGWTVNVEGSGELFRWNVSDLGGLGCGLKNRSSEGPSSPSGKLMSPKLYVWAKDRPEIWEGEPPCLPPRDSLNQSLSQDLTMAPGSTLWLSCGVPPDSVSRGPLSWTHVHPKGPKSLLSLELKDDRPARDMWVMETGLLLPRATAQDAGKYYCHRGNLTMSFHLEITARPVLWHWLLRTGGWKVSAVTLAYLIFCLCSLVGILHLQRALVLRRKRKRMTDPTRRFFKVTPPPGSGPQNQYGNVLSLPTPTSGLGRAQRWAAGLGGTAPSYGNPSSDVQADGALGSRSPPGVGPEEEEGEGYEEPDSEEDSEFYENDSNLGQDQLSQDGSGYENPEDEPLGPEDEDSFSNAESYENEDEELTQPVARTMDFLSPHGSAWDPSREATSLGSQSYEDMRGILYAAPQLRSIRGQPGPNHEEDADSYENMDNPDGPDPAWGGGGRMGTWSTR
Briefly: flow cytometry, binding to CD19 on RS4;11 cells, MFI against Log[Ab], nM. On the technique in general: Flow cytometry measures light scatter and fluorescence of single cells or particles in a stream.

The target in a further assay is T2, rhesus CD19 (rhesus (Macaca mulatta), UniProt F7F486 20-557).
T2 construct: whole, on cells; also called CD19 from rhesus monkey (Macaca mulatta)
T2 sequence: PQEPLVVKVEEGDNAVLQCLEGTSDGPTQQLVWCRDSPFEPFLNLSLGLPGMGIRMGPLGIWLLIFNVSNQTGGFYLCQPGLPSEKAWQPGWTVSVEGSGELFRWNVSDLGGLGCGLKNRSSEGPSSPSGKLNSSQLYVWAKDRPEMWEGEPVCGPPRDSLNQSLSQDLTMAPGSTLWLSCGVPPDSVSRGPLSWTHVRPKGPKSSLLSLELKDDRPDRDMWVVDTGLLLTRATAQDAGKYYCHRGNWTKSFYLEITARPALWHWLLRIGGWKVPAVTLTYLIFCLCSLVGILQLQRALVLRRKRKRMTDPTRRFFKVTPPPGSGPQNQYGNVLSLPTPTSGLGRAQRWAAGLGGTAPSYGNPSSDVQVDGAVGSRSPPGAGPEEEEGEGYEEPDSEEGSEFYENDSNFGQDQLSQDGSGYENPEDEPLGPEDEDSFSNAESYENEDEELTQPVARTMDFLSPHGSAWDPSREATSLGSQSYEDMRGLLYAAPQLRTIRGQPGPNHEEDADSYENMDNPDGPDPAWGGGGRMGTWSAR
In words: flow cytometry on monkey blood lymphocytes (method for the murine antibody not detailed).

The next assay concerns the target T3, cynomolgus CD19 (cynomolgus (Macaca fascicularis), UniProt A0A2K5W8L9 20-557).
T3 construct: whole, on cells; also called CD19 from cynomolgus monkey (Macaca fascicularis)
T3 sequence: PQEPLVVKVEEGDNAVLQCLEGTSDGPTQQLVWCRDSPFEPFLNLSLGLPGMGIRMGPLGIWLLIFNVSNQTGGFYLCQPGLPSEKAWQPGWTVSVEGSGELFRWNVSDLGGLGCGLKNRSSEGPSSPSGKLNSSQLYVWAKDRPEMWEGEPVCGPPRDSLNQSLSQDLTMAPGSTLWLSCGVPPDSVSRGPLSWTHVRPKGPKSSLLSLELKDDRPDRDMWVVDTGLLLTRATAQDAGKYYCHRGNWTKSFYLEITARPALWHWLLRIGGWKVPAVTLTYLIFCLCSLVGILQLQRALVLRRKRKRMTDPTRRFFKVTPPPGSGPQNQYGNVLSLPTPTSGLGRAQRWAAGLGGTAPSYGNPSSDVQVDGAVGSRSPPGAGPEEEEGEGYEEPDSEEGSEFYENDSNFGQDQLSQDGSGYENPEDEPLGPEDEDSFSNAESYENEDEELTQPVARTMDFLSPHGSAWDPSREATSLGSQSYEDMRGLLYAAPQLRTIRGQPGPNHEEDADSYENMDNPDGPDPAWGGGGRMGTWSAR
Described as above.

The target in another assay is T4, FcγRIIa - H131 (human, UniProt P12318).
T4 construct: soluble His-tagged receptor; also called H131 FcγRIIa (FcγR-His)
T4 sequence (receptor chain, looked up): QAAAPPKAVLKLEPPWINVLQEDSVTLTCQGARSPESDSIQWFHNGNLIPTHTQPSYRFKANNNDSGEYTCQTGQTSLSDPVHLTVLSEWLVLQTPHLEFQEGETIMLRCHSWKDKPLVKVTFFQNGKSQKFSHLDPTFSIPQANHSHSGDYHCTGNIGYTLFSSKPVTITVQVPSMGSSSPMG
Briefly: Biacore SPR: IgG captured on protein A/G (CM5 chip), FcγR-His injected; KD from 1:1 group fit, plotted as -log(KD). As for the experimental part: (§1) Briefly, protein A/G was coupled to a flow cell of a CM5 chip. IgG was first diluted to 25 nM and immobilized to protein A/G channel to ˜1000 RUs. FcγR-His was serially diluted and injected at […] for 2 min followed by dissociation for 3 min. To determine KD the resulting sensorgrams are “group-fitted” using the 1:1 interaction model available in BlAevaluation software.
In general terms: Surface plasmon resonance follows binding to a sensor surface in real time, without labels.

The target of the next assay is T5, FcγRIIa - R131 (human, UniProt P12318).
T5 construct: soluble His-tagged receptor; also called R131 FcγRIIa (FcγR-His)
T5 sequence (receptor chain, looked up): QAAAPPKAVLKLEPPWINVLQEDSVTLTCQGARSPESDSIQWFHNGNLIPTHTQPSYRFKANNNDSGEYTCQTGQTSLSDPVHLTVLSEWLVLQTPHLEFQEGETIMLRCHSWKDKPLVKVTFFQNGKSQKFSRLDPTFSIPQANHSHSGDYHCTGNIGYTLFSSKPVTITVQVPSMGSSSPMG
Described as above. On the procedure:
as §1

Assay [2] deals with T6, human V158 FcγRIIIa (FcγR-His) (human, UniProt P08637 17-208, limits assumed).
T6 construct: Soluble His-tagged receptor injected as analyte in Biacore; not shown: His tag ('FcγR-His')
T6 sequence (P08637 17-208 F176V limits assumed): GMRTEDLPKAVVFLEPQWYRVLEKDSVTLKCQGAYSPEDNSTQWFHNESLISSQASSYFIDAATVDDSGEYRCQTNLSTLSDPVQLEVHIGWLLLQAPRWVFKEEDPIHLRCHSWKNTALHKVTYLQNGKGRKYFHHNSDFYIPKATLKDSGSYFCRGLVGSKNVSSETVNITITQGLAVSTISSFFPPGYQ
Briefly: Biacore SPR; IgG captured on protein A/G, FcγR-His injected; 1:1 model. On the procedure: as §1

The target of assay [3] is T6, human V158 FcγRIIIa (FcγR-His). Briefly: Biacore SPR; IgG captured on protein A/G, FcγR-His injected; reference is 4G7 IgG1 (WT). As for the experimental part: as §1
Assay [4] addresses T1, human CD19. In words: DELFIA time-resolved fluorometry competition on Raji cells; competitor tracer is Eu-labeled anti-CD19 (H0L0). As for the experimental part: Affinities of enhanced effector function anti-CD19 variants were determined by using the DELFIA® system (PerkinElmer Life Sciences) which is based on Time-Resolved Fluorometry (TRF). […] The assay is essentially applied as a competition assay for screening anti-CD19 antibodies of different affinities.

The target of assay [5] is T7, human F158 FcγRIIIa (FcγR-His) (human, UniProt P08637 17-208, limits assumed).
T7 construct: Soluble His-tagged receptor injected as analyte in Biacore; not shown: His tag ('FcγR-His')
T7 sequence (P08637 17-208 limits assumed): as the sequence (P08637 17-208 F176V limits assumed) above, with V160F counted along it
In words: Biacore SPR; IgG captured on protein A/G, FcγR-His injected; 1:1 model. As for the experimental part: as §1

B1: 4G7 H1L1 Hybrid S239D/I332E (antibody, human IgG1, kappa, V domains shown)
VH: EVQLVESGGGLVKPGGSLKLSCAASGYTFTSYVMHWVRQAPGKGLEWIGYINPYNDGTKYNEKFQGRVTISSDKSISTAYMELSSLRSEDTAMYYCARGTYYYGSRVFDYWGQGTLVTVSS
VL: DIVMTQSPATLSLSPGERATLSCRSSKSLLNSNGNTYLYWFQQKPGQSPQLLIYRMSNLASGVPDRFSGSGSGTEFTLTISSLEPEDFAVYYCMQHLEYPFTFGAGTKLEIKR
notes: also called H1L1 mAb
The EC50 (read off the curve) is the midpoint of the concentration-response curve. For B1, in the assay with human CD19 [1], the “EC50 (read off the curve)” value was around 6 nM.

B2: parental murine antibody of the anti-CD19 (4G7) (antibody, V domains shown)
VH: EVQLQQSGPELIKPGASVKMSCKASGYTFTSYVMHWVKQKPGQGLEWIGYINPYNDGTKYNEKFKGKATLTSDKSSSTAYMELSSLTSEDSAVYYCARGTYYYGSRVFDYWGQGTTLTVSS
VL: DIVMTQAAPSIPVTPGESVSISCRSSKSLLNSNGNTYLYWFLQRPGQSPQLLIYRMSNLASGVPDRFSGSGSGTAFTLRISRVEAEDVGVYYCMQHLEYPFTFGAGTKLELK
notes: also called its parental murine antibody
As for B2, the binding result with rhesus CD19 and in the assay with cynomolgus CD19 was “no binding” each time.

B3: 4G7 IgG1 (chimeric: murine 4G7 H0/L0 variable regions, human IgG1 and kappa constant regions) (antibody)
heavy: not shown
light: DIVMTQAAPSIPVTPGESVSISCRSSKSLLNSNGNTYLYWFLQRPGQSPQLLIYRMSNLASGVPDRFSGSGSGTAFTLRISRVEAEDVGVYYCMQHLEYPFTFGAGTKLELKRTVAAPSVFIFPPSDEQLKSGTASVVCLLNNFYPREAKVQWKVDNALQSGNSQESVTEQDSKDSTYSLSSTLTLSKADYEKHKVYACEVTHQGLSSPVTKSFNRGEC
notes: also called 4G7 IgG1 antibody; WT IgG1 antibody; copies: 2 + 2
Usually Kd stands for the free concentration of one partner at which half of the binding sites on the other are occupied at equilibrium, for simple one-to-one binding. Regarding B3, the binding result with FcγRIIa - H131 and in the assay with FcγRIIa - R131 was “binds” each time. In addition, the dissociation constant (Kd) in assay [2] is around 240 nM.

B4: 4G7 Hybrid S239D/I332E (murine 4G7 H0/L0 variable regions, hybrid IgG1/IgG2 constant region with S239D/I332E) (antibody)
heavy: EVQLQQSGPELIKPGASVKMSCKASGYTFTSYVMHWVKQKPGQGLEWIGYINPYNDGTKYNEKFKGKATLTSDKSSSTAYMELSSLTSEDSAVYYCARGTYYYGSRVFDYWGQGTTLTVSSASTKGPSVFPLAPSSKSTSGGTAALGCLVKDYFPEPVTVSWNSGALTSGVHTFPAVLQSSGLYSLSSVVTVPSSSLGTQTYICNVNHKPSNTKVDKKVEPKSCDKTHTCPPCPAPELLGGPDVFLFPPKPKDTLMISRTPEVTCVVVDVSHEDPEVQFNWYVDGVEVHNAKTKPREEQFNSTFRVVSVLTVVHQDWLNGKEYKCKVSNKALPAPEEKTISKTKGQPREPQVYTLPPSREEMTKNQVSLTCLVKGFYPSDIAVEWESNGQPENNYKTTPPMLDSDGSFFLYSKLTVDKSRWQQGNVFSCSVMHEALHNHYTQKSLSLSPGK
light: DIVMTQAAPSIPVTPGESVSISCRSSKSLLNSNGNTYLYWFLQRPGQSPQLLIYRMSNLASGVPDRFSGSGSGTAFTLRISRVEAEDVGVYYCMQHLEYPFTFGAGTKLELKRTVAAPSVFIFPPSDEQLKSGTASVVCLLNNFYPREAKVQWKVDNALQSGNSQESVTEQDSKDSTYSLSSTLTLSKADYEKHKVYACEVTHQGLSSPVTKSFNRGEC
notes: also called effector function enhanced anti-CD19; enhanced effector function anti-CD19; copies: 2 + 2
The EC50 is the concentration at which the effect is half-maximal. Regarding B4, the binding result with FcγRIIa - H131 and in the assay with FcγRIIa - R131 was “binds” in each case. Besides, the “affinity enhancement relative to WT” value in assay [3] is around 50 fold. Moreover, it took 1.2 nM to reach a half-maximal effect with human CD19 [4] (EC50). In addition, the Kd in assay [5] was around 16.7 nM; in assay [2] it was around 4.7 nM.
